Assay results taken from patent WO2012028683A1 (dated 2012).

Molecular target: T1, recombinant human SOST (human, UniProt Q9BQB4 24-213, labeled with Cy5 (site not stated))
T1 construct: Acceptor-labelled partner in the FRET assay; also called sclerostin; Cy5-SOST
T1 sequence (looked up): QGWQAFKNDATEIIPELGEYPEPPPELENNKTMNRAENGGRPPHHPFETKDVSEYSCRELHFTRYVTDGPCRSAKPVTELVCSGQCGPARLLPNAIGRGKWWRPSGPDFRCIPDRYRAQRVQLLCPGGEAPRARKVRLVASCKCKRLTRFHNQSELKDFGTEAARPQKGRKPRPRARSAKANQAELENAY
Assay: FRET competition assay (inhibition of SOST binding to LRP6(Fc)), antibody released from the PBS gel

binding result: binds
B1: ANTIBODY 1 (antibody, human IgG2, lambda, V domains shown)
VH: QVQLVESGGGLVQPGGSLRLSCAASGFTFRSHWLSWVRQAPGKGLEWVSNINYDGSSTYYADSVKGRFTISRDNSKNTLYLQMNSLRAEDTAVYYCARDTYLHFDYWGQGTLVTVSS
VL: DIALTQPASVSGSPGQSITISCTGTSSDVGDINDVSWYQQHPGKAPKLMIYDVNNRPSGVSNRFSGSKSGNTASLTISGLQAEDEADYYCQSYAGSYLSEVFGGGTKLTVLG
notes: also called anti-sclerostin antibody; mAb
